The text below walks through data of article PMC8310136.

This data set has as its target NT*MNV VPg (Murine norovirus (MNV), UniProt Q80J95 871-994). The data set is described as follows: competition; 100-fold excess over labelled PP9 RNA. To be noted: protein: recombinant, tags: N-terminal His6-StrepII-spidroin NT*-enterokinase site-GGSRS linker, label: none.

B1: ssDNA competitor (ssDNA)
DNA: TATGCGGGCGAAACTTCTGGGAATAGTCCTGACAACCCCTATTGCGATCAGCTCTTTTGCTAGCTCG
As to B1, the binding result is “no binding”.

B2: dsDNA competitor (dsDNA)
DNA 1: B1 DNA
DNA 2: CGAGCTAGCAAAAGAGCTGATCGCAATAGGGGTTGTCAGGACTATTCCCAGAAGTTTCGCCCGCATA
As to B2, the binding result (blunt) is “no binding”.
